Data as given in IntAct's records for PubMed 20819940.

B1: High mobility group protein B1 (Rattus norvegicus (Rat)), P63159 (parent)
chain: MGKGDPKKPRGKMSSYAFFVQTCREEHKKKHPDASVNFSEFSKKCSERWKTMSAKEKGKFEDMAKADKARYEREMKTYIPPKGETKKKFKDPNAPKRPPSAFFLFCSEYRPKIKGEHPGLSIGDVAKKLGEMWNNTAADDKQPYEKKAAKLKEKYEKDIAAYRAKGKPDAAKKGVVKAEKSKKKKEEEDDEEDEEDEEEEEEEEDEDEEEDDDDE

Variants of: B1
Settings: with becn1_mouse Becn1, O88597
becn1_mouse Becn1, O88597, sequence (O88597 whole entry): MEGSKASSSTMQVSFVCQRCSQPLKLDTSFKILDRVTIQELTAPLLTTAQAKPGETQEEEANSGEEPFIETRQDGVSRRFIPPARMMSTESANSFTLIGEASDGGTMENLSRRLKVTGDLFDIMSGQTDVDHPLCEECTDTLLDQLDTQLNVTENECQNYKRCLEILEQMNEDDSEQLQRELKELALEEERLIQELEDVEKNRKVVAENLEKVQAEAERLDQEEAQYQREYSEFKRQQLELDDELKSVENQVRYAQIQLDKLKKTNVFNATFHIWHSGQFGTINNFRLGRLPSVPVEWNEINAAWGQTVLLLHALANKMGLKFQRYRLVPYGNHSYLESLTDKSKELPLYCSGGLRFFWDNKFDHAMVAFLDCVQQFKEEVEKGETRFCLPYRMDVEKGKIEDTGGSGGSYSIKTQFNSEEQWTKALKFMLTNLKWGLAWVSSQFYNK

effect of a mutation on the interaction | Variant
disrupting interaction | MGKGDPKKPRGKMSSYAFFVQTSREEHKKKHPDASVNFSEFSKKCSERWKTMSAKEKGKFEDMAKADKARYEREMKTYIPPKGETKKKFKDPNAPKRPPSAFFLFCSEYRPKIKGEHPGLSIGDVAKKLGEMWNNTAADDKQPYEKKAAKLKEKYEKDIAAYRAKGKPDAAKKGVVKAEKSKKKKEEEDDEEDEEDEEEEEEEEDEDEEEDDDDE [C23S]
disrupting interaction | MGKGDPKKPRGKMSSYAFFVQTCREEHKKKHPDASVNFSEFSKKSSERWKTMSAKEKGKFEDMAKADKARYEREMKTYIPPKGETKKKFKDPNAPKRPPSAFFLFCSEYRPKIKGEHPGLSIGDVAKKLGEMWNNTAADDKQPYEKKAAKLKEKYEKDIAAYRAKGKPDAAKKGVVKAEKSKKKKEEEDDEEDEEDEEEEEEEEDEDEEEDDDDE [C45S]
